Measured values as given in paper PMC7116876, “Mechanistic Insights into Regulation of the ALC1 Remodeler by the Nucleosome Acidic Patch” (Cell reports, 2020).
Numbering of substitutions follows the chain as printed. Names may count otherwise.

B1: ALC1^fl R860W: constitutively active mutant of ALC1 (protein)
chain: FLLRLHTEGRAEAARVQEQDLRQWGLTGIHLRSYQLEGVNWLAQRFHCQNGCILGDEMGLGKTCQTIALFIYLAGRLNDEGPFLILCPLSVLSNWKEEMQRFAPGLSCVTYAGDKEERACLQQDLKQESRFHVLLTTYEICLKDASFLKSFPWSVLVVDEAHRLKNQSSLLHKTLSEFSVVFSLLLTGTPIQNSLQELYSLLSFVEPDLFSKEEVGDFIQRYQDIEKESESASELHKLLQPFLLRRVKAEVATELPKKTEVVIYHGMSALQKKYYKAILMKDLDAFENETAKKVKLQNILSQLRKCVDHPYLFDGVEPEPFEVGDHLTEASGKLHLLDKLLAFLYSGGHRVLLFSQMTQMLDILQDYMDYRGYSYERVDGSVRGEERHLAIKNFGQQPIFVFLLSTRAGGVGMNLTAADTVIFVDSDFNPQNDLQAAARAHRIGQNKSVKVIRLIGRDTVEEIVYRKAASKLQLTNMIIEGGHFTLGAQKPAADADLQLSEILKFGLDKLLASEGSTMDEIDLESILGETKDGQWVSDALPAAEGGSRDQEEGKNHMYLFEGKDYSKEPSKEDRKSFEQLVNLQKTLLEKASQEGRSLRNKGSVLIPGLVEGSTKRKRVLSPEELEDRQKKRQEAAAKRRRLIEEKKRQKEEAEHKKKMAWWESNNYQSFCLPSEESEPEDLENGEESSAELDYQDPDATSLKYVSGDVTHPQAGAEDALIVHCVDDSGHWGRGGLFTALEKRSAEPRKIYELAGKMKDLSLGGVLLFPVDDKESRNKGQDLLALIVAQHRDRSNVLSGIKMAALEEGLKKIFLAAKKKKASVHLPRIGHATKGFNWYGTERLIWKHLAARGIPTYIYYFPRSK
modifications: left off: His6, end not stated, state not stated
B2: ALC1^fl R611A/S612A/R860W: ALC1^RLS Arg anchor (R611) and adjacent residue (S612) mutated to alanines (protein)
chain: B1 chain with R596A, S597A
modifications: left off: His6, end not stated, state not stated
notes: ALC1^RLS Arg anchor (R611) and adjacent residue (S612) mutated to alanines

Legend:
[1] = system: ALC1-catalyzed remodeling of APM/APM nucleosomes; assay: Ensemble FRET nucleosome remodeling, APM/APM versus WT/WT nucleosomes; assay type: biochemical, Homo sapiens ALC1; Xenopus laevis histones; conditions: 20 μM remodeler, 10 nM nucleosomes, 1.5 mM ATP; n = 3 independent experiments
Source text: (§1) cDNAs for ALC1 and PARP1 were of Homo sapiens origin. Histone proteins (recombinantly expressed in E. coli) were of Xenopus laevis origin. Cell lines as well as growth conditions are described in the Method Details.
(§2) Oligonucleotides used in this study were ordered from IDT (see Table S3). The ALC1^fl (16-879) construct contains the human ALC1 sequence and a 6xHis-tag, as previously published ([Lehmann et al., 2017]). All point mutations were generated by PCR-based site-directed mutagenesis. The plasmid for human PARP1 (1-1014) with an N-terminal 6xHis-tag was a kind gift from John M. Pascal ([Langelier et al., 2017]).
(§3) The DNA constructs used in the nucleosome assembly for single-molecule and ensemble remodeling studies comprised the Widom 601 nucleosome positioning sequence ([Lowary and Widom, 1998]) as well as either 3 bp or 12 bp of linker DNA on one side and 78 bp on the other side (for the single-molecule remodeling construct) or 63 bp of linker DNA on one side and no linker DNA on the other side (for the ensemble remodeling construct). […] The DNA constructs for the assembly of nucleosomes used in fluorescence anisotropy experiments and ATPase assays comprised the Widom 601 positioning sequence without additional linker DNA (for the fluorescence anisotropy construct) or 63 bp of linker DNA on one side and no linker DNA on the other side (for the ATPase assay construct). […]

[2] = system: individual WT/WT nucleosomes; assay: smFRET remodeling directionality, WT/WT nucleosomes; assay type: biochemical, Xenopus laevis histones; conditions: 2.5 μM remodeler, 1 mM ATP, n > 100 traces
Source text: (§4) The DNA constructs used in the nucleosome assembly for single-molecule and ensemble remodeling studies comprised the Widom 601 nucleosome positioning sequence ([Lowary and Widom, 1998]) as well as either 3 bp or 12 bp of linker DNA on one side and 78 bp on the other side (for the single-molecule remodeling construct) or 63 bp of linker DNA on one side and no linker DNA on the other side (for the ensemble remodeling construct). All constructs were 5’-labeled with Cy5 on the short linker end. The constructs for single-molecule experiments additionally featured a biotin on the long linker end. […] The DNA constructs for the assembly of nucleosomes used in fluorescence anisotropy experiments and ATPase assays comprised the Widom 601 positioning sequence without additional linker DNA (for the fluorescence anisotropy construct) or 63 bp of linker DNA on one side and no linker DNA on the other side (for the ATPase assay construct). […]
(§5) Using the DNA constructs for single-molecule FRET described above, we first generated oriented hexasomes with H2A-Cy3 on the short linker side using a salt dialysis method as described previously ([Dyer et al., 2004]; [Levendosky et al., 2016]; [Sabantsev et al., 2019]). […] Data were analyzed using custom scripts for the Fiji distribution of ImageJ ([Schindelin et al., 2012]; [Schneider et al., 2012]), IDL, and MATLAB ([Sabantsev et al., 2019]). […]

[3] = system: individual WT/APM nucleosomes; assay: smFRET remodeling directionality, WT/APM nucleosomes; assay type: biochemical, Xenopus laevis histones; conditions: 2.5 μM remodeler, 1 mM ATP, n > 100 traces
Source text: as §4, §5

[4] = system: ALC1 ATPase with 145 bp dsDNA; assay: DNA-stimulated ATPase activity; assay type: biochemical, Homo sapiens ALC1; conditions: 1 μM ALC1, 20 μM or 50 μM 145 bp dsDNA, 1 mM ATP; N = 3 independent experiments
Description: ATPase activity was measured using a coupled assay that measures ADP production as described previously, ([Willhoft et al., 2016]). Final concentrations of 0.45 mM NADH, 1.0 mM phosphoenolpyruvate, 54 U/ml pyruvate kinase (Sigma), and 78 U/ml lactic dehydrogenase (Sigma) were used. For measurements of nucleosome-stimulated ATPase activity, reactions contained 20 μM ALC1,2 μM WT/WT nucleosomes, and 1 mM ATP in a volume of 30 μl. Fluorescence was monitored (excitation wavelength: 340 nm; emission wavelength: 430 nm) at 37°C using a CLARIOstar microplate reader (BMG Labtech) and black low-volume 384-well microplates (Corning). For measurements of DNA-stimulated ATPase activity, the absorbance was monitored at 340 nm for reactions containing a final of 1 μM ALC1 and either 20 μM or 50 μM 145 bp nucleosomal double-stranded (ds) DNA in 100 μl. Reaction rates were determined using mean linear slopes. […]
(§6) For fluorescence anisotropy binding experiments, the reported values represent the mean ± SEM from 3 independent experiments. […] For ensemble nucleosome remodeling time courses, each experimental condition was recorded in 3 independent experiments, and representative remodeling time courses are shown. […]

[5] = system: ALC1 ATPase with WT/WT nucleosomes; assay: Nucleosome-stimulated ATPase activity; assay type: biochemical, Homo sapiens ALC1; Xenopus laevis histones
Description: ATPase activity was measured using a coupled assay that measures ADP production as described previously, ([Willhoft et al., 2016]). Final concentrations of 0.45 mM NADH, 1.0 mM phosphoenolpyruvate, 54 U/ml pyruvate kinase (Sigma), and 78 U/ml lactic dehydrogenase (Sigma) were used. For measurements of nucleosome-stimulated ATPase activity, reactions contained 20 μM ALC1,2 μM WT/WT nucleosomes, and 1 mM ATP in a volume of 30 μl. Fluorescence was monitored (excitation wavelength: 340 nm; emission wavelength: 430 nm) at 37°C using a CLARIOstar microplate reader (BMG Labtech) and black low-volume 384-well microplates (Corning). For measurements of DNA-stimulated ATPase activity, the absorbance was monitored at 340 nm for reactions containing a final of 1 μM ALC1 and either 20 μM or 50 μM 145 bp nucleosomal double-stranded (ds) DNA in 100 μl. Reaction rates were determined using mean linear slopes. For measurements of nucleosome-stimulated ATPase activity, we estimated Vmax for both ALC1^fl R860W and ALC1^fl R611A/S612A/R860W using the Michaelis-Menten equation and the Km values that we obtained from nucleosome sliding kinetics in Figure 3B.
For fluorescence anisotropy binding experiments, the reported values represent the mean ± SEM from 3 independent experiments. For ATPase activity measurements, the reported values represent the mean ± standard deviation from 3 independent experiments. For ensemble nucleosome remodeling time courses, each experimental condition was recorded in 3 independent experiments, and representative remodeling time courses are shown. Relative remodeling rates derived from these curves represent the mean ± standard deviation from 3 independent experiments. For smFRET experiments, values are reported as mean ± SEM from several experiments as specified in the corresponding figure legends. For association kinetics from live-cell imaging, error bars represent SEM from N ≥ 131 traces from 3 independent experiments.

[6] = system: ALC1-catalyzed remodeling of WT/WT nucleosomes; assay: Ensemble FRET nucleosome remodeling, WT/WT nucleosomes; assay type: biochemical, Homo sapiens ALC1; Xenopus laevis histones
Source text: as §1, §2, §3
Nucleosome ensemble remodeling kinetics were measured by monitoring the Cy5 (under 620 nm and 520 nm excitation) and Cy3 (under 520 nm excitation) fluorescence emission signals of a solution of FRET-labeled nucleosomes using a Spark (Tecan) or CLARIOstar (BMG Labtech) multimode microplate reader. […] Reaction kinetics were analyzed assuming a standard Michaelis-Menten mechanism.
as §6

[7] = system: individual WT/WT nucleosomes with 3 bp of linker DNA; assay: smFRET remodeling, pause duration; assay type: biochemical, Xenopus laevis histones
Source text: as §4, §5

[8] = WT/WT nucleosomes 10 nM, various remodeler concentrations, Michaelis-Menten

average binding time relative to average pause duration (pause fold shorter) ([7]; remodeler concentration 20 μM) [fold]	fold reduction of ATPase rate versus ALC1^fl R860W ([5]; 20 μM ALC1, 2 μM WT/WT nucleosomes, 1 mM ATP, 37°C, n = 3 independent experiments)	Molecule	fold decrease in remodeling rate, APM/APM versus WT/WT nucleosomes [1]	fraction of single-nucleosome remodeling traces with initial decrease in FRET (toward longer linker DNA) [2] [%]	fraction of traces with opposite directionality (toward shorter linker DNA) [2] [%]	fraction of WT/APM nucleosomes moved toward the shorter linker end [3] [%]	DNA-stimulated ATPase activity, ALC1^fl R860W versus ALC1^fl R611A/S612A/R860W [4]	nucleosome-stimulated ATPase activity, fold higher than DNA-stimulated ATPase activity ([5]; 20 μM ALC1 with 2 μM WT/WT nucleosomes versus 1 μM ALC1 with dsDNA, 1 mM ATP)	FRET change upon addition of remodeler and ATP ([6]; WT/WT end-positioned nucleosomes, saturating remodeler and ATP)	increase in observed pause duration on lowering remodeler concentration by a factor of 4 ([7]; remodeler concentration lowered 4-fold) [%]	fold reduction of ATPase rate versus ALC1^fl R860W, saturating conditions (Vmax) ([5]; under saturating conditions, Vmax estimated with Michaelis-Menten equation and Km values from nucleosome sliding kinetics)	fold decrease of maximum rate for remodeling versus ALC1^fl R860W [6, 8]	fold increase of Michaelis constant for remodeling versus ALC1^fl R860W [6, 8]
		B1	~ 13.7 fold	62	38	89	essentially identical DNA-stimulated ATPase activity	~ 1.6 fold	FRET decreased				
2.8	~ 2.5 fold	B2	~ 3.2 fold				essentially identical DNA-stimulated ATPase activity			30	~ 2 fold	~ 6.4 fold	~ 5.3 fold
